This passage reports Kd results from paper PMC6131548 (2018).

Broadly, the Kd is the concentration at which binding is half-saturated.

In this experiment the target is T1, Tsr2-N (recombinant, binding assays) (S. cerevisiae (yeast), UniProt Q06672 1-152).
T1 chain: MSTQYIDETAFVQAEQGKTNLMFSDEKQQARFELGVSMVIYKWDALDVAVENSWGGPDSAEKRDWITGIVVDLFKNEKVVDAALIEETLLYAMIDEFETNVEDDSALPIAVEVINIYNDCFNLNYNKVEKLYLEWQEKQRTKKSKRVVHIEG
The experiment can be described thus: ITC. For orientation: Isothermal titration calorimetry measures the heat released or taken up as one component is titrated into another.

As to RPRFNRENKVSPADAAKKAL [ESS2 peptide], the Kd came out at 720 nM.
